One experiment addresses RSV F on RSV-A2 virus (Respiratory Syncytial Virus (RSV-A2), UniProt P03420 26-574). The experiment is described as follows: cell-based or functional assay.
Experiment [1] addresses RSV postfusion F (postF), F ΔFP (Respiratory Syncytial Virus, UniProt P03420 26-513). The experiment is described as follows: BLI, IgG on anti-human IgG sensor. (In general: BLI is a label-free optical method that tracks binding on a fibre tip over time.)
For experiment [2], the target named is RSV prefusion F (preF), DS-Cav1 (Respiratory Syncytial Virus, UniProt P03420 26-513). Nature of the experiment: BLI, IgG on anti-human IgG sensor, 100 nM antigen, 1:1 fit.
Experiment [3] addresses RSV postfusion F (postF), F ΔFP trimer, subtype A (Respiratory Syncytial Virus, subtype A, UniProt P03420 26-513). The experiment is described as follows: BLI, IgG (Table 9A).
For experiment [4], the target named is RSV F on RSV subtype A virus (RSV-A2) (Respiratory Syncytial Virus, subtype A, …, UniProt P03420 26-574). Nature of the experiment: cell-based or functional assay.
Experiment [5] concerns the target RSV prefusion F (preF), DS-Cav1 stabilized trimer, subtype A (Respiratory Syncytial Virus, subtype A, UniProt P03420 26-513). The experiment is described as follows: BLI, apparent IgG KD (Table 9A).

Some results are limits rather than exact numbers.

B1: ADI-41476 (antibody, V domains shown)
VH: EVQLLESGGGLVQPGGSLRLSCATSGFRFTRYWMHWVRQAPGKGLEWVARINFDGTTTNYADSVKGRFTVSRDNAKNTLYLQINSLRAEDTAVYFCARDQTFLEWLPFESWGQGTLVTVSS
VL: QTVVTQEPSFSVSPGGTVTLTCGLTSGSVSTSYYPSWYQQTPGQAPRTLIYNTKTRFSGVPDRFSGSILGNKAALTITGAQADDESDYYCVLYMSGGMVFGGGTKLTVL
Consider B1, for which the “Neutralization IC50 (RSV subtype A)” value with RSV F on RSV-A2 virus was above 25 µg/mL. Further, the binding result in experiment [1] was “no binding”. For the same molecule, the Kd in experiment [2] turned out to be 3860 pM.

B2: ADI-41302 (antibody, V domains shown)
VH: QVQLVESGGGVVQPGRSLRLSCAASGFTFSSYAMQWVRQAPGKGLEWVAVMTNDGDDKYYADSVRGRFTISRDNSKNTLYLQMNNLRPEDTAVYYCARDLFEWWELLGYCYAMDVWGQGTTVTVSS
VL: QSVLTQPPSASGSPGQSVTISCTGTSSDVGAYNYVSWYQQHPGKAPKLIIYEVYKRPSGVPDRFFGSKSGNTASLTVSGLQAEDEADYYCSSYAGSNTLGVFGGGTKVTVL
Take B2: the binding result in experiment [3] is “no binding”. Besides, in experiment [4], the “Neutralization - RSV A2 IC50 (pM)” value came to 133 pM and the “neut IC50 (ug/ml) subtype A (wright)” value stood at 0.006 µg/mL. The Kd in experiment [5] worked out at 650 pM.

B3: ADI-41259 (antibody, V domains shown)
VH: QVQLVESGGRLVKPGGSLRLSCAASGFTFSDFYMSWIRQAPGKGLEWVSYISSSGDDPNYADSVKGRFTISRDNSKNSLYLQMNSLRAEDTAVYYCARDEVGWNNLDYYFGMDVWGQGTTVTVSS
VL: DIVMTQSPLSLPVTLGQPASISCRSSQSLVHSDGNTYLSWFHQRPGQSPRRLIYKVSNRDSGVPNRFSGGGSGTDFTLKISRVEAEDVGFFYCMQGTHWQKTFGQGTKVEIK
With B3, in experiment [3], the binding result is listed as “no binding”. In experiment [4], the “Neutralization - RSV A2 IC50 (pM)” value was found to be 122 pM and the “neut IC50 (ug/ml) subtype A (wright)” value was 0.015 µg/mL. Besides, in experiment [5], the Kd came to 340 pM.

B4: ADI-41203 (antibody, V domains shown)
VH: QVQLVQSGAEVRKPGESLKISCKASGYRFTNYWIGWVRQMPGKGLEWMGVIYPGDSDTRYSPSFQGQVTMSADKSTNTAYLQWSSLKASDTAIYYCVSLYSDYDYGALDYWGQGTLVTVSS
VL: EIVMTQSPATLSVSPGERATLSCRASENVGRNLAWYQQKPGQAPRLLIYGASIRATGILARFSGSGSGTEYTLTISSLQSEDFAVYYCQQYHDWPSFTFGPGTKVDIK
Turning to B4, in experiment [3], the binding result is “no binding”. Moreover, in experiment [4], the “Neutralization - RSV A2 IC50 (pM)” value was found to be 23.9 pM and the “neut IC50 (ug/ml) subtype A (wright)” value stood at 0.006 µg/mL. Moreover, the Kd in experiment [5] was determined as 400 pM.

B5: ADI-41256 (antibody, V domains shown)
VH: QVQLVQSGAEVKSPGSSATVSCKASGGTFGSYGISWVRQAPGQGLEWIGAIMPMFGTTNYAQKFQGRVTMTADESTSTVYMDVSSLRPDDTAVYYCVRDVFYDILTGYYDADYYHHYMDVWGKGTTVTVSS
VL: DIVMTQSPLSLPVTLGQPASISCRSGQSLVHSDGNTYLNWFQQRPGQSPRRLIYKVSNRGSGVPDRFSGSGSGTDFTLKISRVEAEDVGVYFCMQGTHWPRTFGQGTKVDIK
notes: also called Ab 578; Antibody Number 578
With B5, the binding result in experiment [3] is reported as “no binding”. In experiment [4], the “Neutralization - RSV A2 IC50 (pM)” value came out at 85.8 pM and the “neut IC50 (ug/ml) subtype A (wright)” value came out at 0.019 µg/mL. The Kd in experiment [5] came to 350 pM.

B6: ADI-36676 (antibody, V domains shown)
VH: EVQLLESGGGVVQPGRSLRLSCAASGFSFRNYDMHWVRQAPGKGLEWVAIISYDGSNKYADSVKGRFTISRDTSKNTLYLQMNSLRVEDTAVYYCARADSSGYYKGSEYFQHWGQGTLVTVSS
VL: SYELTQLPSVSVAPGQTARITCGGNNIGTKSVQWYQHKPGQAPVLVVYDDSDRPSDIPERFSGSNSGNTATLTISRVEAGDEADYYCQVWDSSSDHYVFGTGTKLTVL
notes: also called Ab 832; Antibody Number 832
For the molecule B6, in experiment [3], the binding result is listed as “no binding”. Further, in experiment [4], the “Neutralization - RSV A2 IC50 (pM)” value is 130 pM and the “neut IC50 (ug/ml) subtype A (wright)” value worked out at 0.006 µg/mL. The Kd in experiment [5] turned out to be 280 pM.

B7: ADI-36677 (antibody, V domains shown)
VH: QVQLVQSGGGLVQPGGSLRLSCAASGFTFSSYEMNWVRQAPGKGLEWISYISSSGDTKYYADSVKGRFTVSRDNAKYSLYLQMDSLRAEDTAVYYCASLYDSRGYYWVFDYWGQGTLVTVSS
VL: DIVMTQSPSSLSASVGDRVTITCQASQDISTYLNWYQHKPGKAPNLLIYDASNLEPGVPSRFSGSGSGTDFTFTISSLQPEDIATYYCLQHDNLPPTFGQGTKVDIK
Take B7: the binding result in experiment [3] is “no binding”. Further, in experiment [4], the “Neutralization - RSV A2 IC50 (pM)” value was found to be 144 pM and the “neut IC50 (ug/ml) subtype A (wright)” value is 0.019 µg/mL. Also, the Kd in experiment [5] turned out to be 540 pM.

B8: ADI-41489 (antibody, V domains shown)
VH: EVQLVESGGGVVQPGRSLRLSCAASGFNFHNYAFHWVRQAPGKGLDWVAVTSYDGSSAFYADSVKGRFTISRDNSKKILYLQMTSLRAEDTALYYCARGSSSWSGDYFDYWGQGILVTVSS
VL: DIVMTQSPVTLSVSPGERATLSCRASQSVGSNLAWYQQKHGQTPRLLIYDASTRATSIPARFSGSGSGTEFTLTISSLQSEDFAVYYCQQYNKWPSYTFGQGTKVEIK
notes: also called Ab 770; Antibody Number 770
For the molecule B8, the “Neutralization IC50 (RSV subtype A)” value with RSV F on RSV-A2 virus is above 25 µg/mL. Moreover, the binding result in experiment [1] was “no binding”. The molecule further had a Kd in experiment [2] of 88000 pM.

B9: ADI-41501 (antibody, V domains shown)
VH: QVQLVQSGAEVKKPGSSVKVSCKASGGIFSDFAISWVRQAPGQGLEWMGGIITIIGTPEYAQKFQGRVRITADESTTTVFMELSRLTSEDTAVYYCARDSRYGSGWYWDHWGQGTLVTVSS
VL: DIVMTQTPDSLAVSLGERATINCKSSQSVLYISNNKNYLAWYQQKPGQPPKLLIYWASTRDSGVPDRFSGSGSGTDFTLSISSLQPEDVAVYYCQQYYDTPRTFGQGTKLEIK
notes: also called Ab 780; Antibody Number 780
In the case of B9, the “Neutralization IC50 (RSV subtype A)” value in the experiment with RSV F on RSV-A2 virus is above 25 µg/mL. The binding result in experiment [1] is listed as “no binding”. This molecule also displayed a Kd in experiment [2] of 3210 pM.

B10: ADI-41274 (antibody, V domains shown)
VH: EVQLVESGGGLVKPGGSLRLSCAASGFSFSSYAMNWVRQAPGKGLQWVSSISAGSSYIDYADSVKGRFTISRDNAENSLFLQMNSLRVEDTAVYYCARVGSYTHGYEFDYWGQGTLVTVSS
VL: QPVLTQPPSVSGAPGQRVTISCTGSNSNIGAGYDVHWYQQLPGTAPKLLIYASTIRPSGVPDRFSGSKSGTSASLAITGLQAEDEADYYCQSYDRNLSVVFGGGTKVTVL
notes: also called Ab 592; Antibody Number 592
Take B10: in experiment [3], the binding result is given as “no binding”. Moreover, in experiment [4], the “Neutralization - RSV A2 IC50 (pM)” value is 26.6 pM and the “neut IC50 (ug/ml) subtype A (wright)” value is 0.109 µg/mL. Besides, in experiment [5], the Kd is 480 pM.

B11: ADI-41457 (antibody, V domains shown)
VH: EVQLVESGGGLVRPGGSLRVSCAASGFTFIRYDMHWVRQAPGKGLEWVSGIGTAGDTYYAASVQGRFTISRENAKNSLYLQMSNLRPGDTAVYYCAGSMAATGIDQWGQGTLVTVSS
VL: EIVMTQSPLTLPVTPGEPASISCRSSQSLLHSNGFTYLDWFLQKPGQSPQLLIFLGSNRASGVPDRFSGSGSGTDFTLKISRVEAEDVGIYYCMQALQTPYTFGQGTKVEIK
notes: also called Ab 741; Antibody Number 741
As to B11, the “Neutralization IC50 (RSV subtype A)” value with RSV F on RSV-A2 virus is above 25 µg/mL. Moreover, the binding result in experiment [1] was “no binding”. In addition, the Kd in experiment [2] turned out to be 3330 pM.

B12: ADI-41191 (antibody, V domains shown)
VH: QVQLVQSGAEVKRPGASVKVSCKASGYIFSHYGISWVRQAPGQGLEWMAWISAYNGNTNYAQKLQGRVTVTTDTSTSTAYMELRSLRSDDTAVYYCAREPPSLSAAATLDYWGQGTLVTVSS
VL: EIVMTQSPLSLPVTLGQPASISCRSNQSLVYSDGNIYLSWFQQRPGQSPRRLIYKVSNRDSGVPDRFSGSGSGTDFTLKISRVEAEDVAVYYCMQVTHWPHEFGQGTKLEIK
Take B12: the binding result in experiment [3] is “no binding”. Besides, in experiment [4], the “Neutralization - RSV A2 IC50 (pM)” value worked out at 154 pM and the “neut IC50 (ug/ml) subtype A (wright)” value turned out to be 0.071 µg/mL. Besides, in experiment [5], the Kd came to 500 pM.

B13: ADI-41516 (antibody, V domains shown)
VH: EVQLLESGPRLVKPSETLSLTCIVSGGFISYDYWSWIRQPAGKGLEWIGRIYAGGIPKYNPSLKSRVTMSLDMSNNQFSLRLKSVTAADSAVYYCARAEPCSGDCFLGENPFDSWGQGTLVTVSS
VL: QSVLTQPPSASGTPGQRVTISCSGSSSSIGSNYVYWYQQLPGTAPKLLIHKDNERPSGVPDRFSGSKSGTSASLAISGLRSEDEGDYSCAAWDDSLSGWVFGGGTKLTVL
Regarding B13, in the experiment with RSV F on RSV-A2 virus, the “Neutralization IC50 (RSV subtype A)” value turned out to be 0.08 µg/mL. Moreover, the binding result in experiment [1] is given as “no binding”. The same molecule had a Kd in experiment [2] of 414 pM.

B14: ADI-41208 (antibody, V domains shown)
VH: QVQLVESGGDLVKPGGSLRLSCAASGFTLSGHYMSWIRQPPGKGLEWVSSISGGSTYTNYADSVKGRFTISRDNAENSLYLQMNSLRAEDTAVYYCARLAYSDYGPFYFDLWGRGTLVTVSS
VL: QSVLTQPPSVSGAPGQRVTISCTGSSSNIGAGYDVHWYQQLTGTAPKLLIFDNNNRPSGVPDRFSGSKSGTSASLAITGLQAEDEADYYCQSYDSRLSAPYVFGTGTKLTVL
B14: the binding result in experiment [3] was “no binding”. Further, in experiment [4], the “Neutralization - RSV A2 IC50 (pM)” value is 310 pM and the “neut IC50 (ug/ml) subtype A (wright)” value turned out to be 0.077 µg/mL. Besides, the Kd in experiment [5] turned out to be 480 pM.

B15: ADI-41491 (antibody, V domains shown)
VH: EVQLLESGGGLVQPGGSLRLSCAASGFTFSSYSMNWVRQAPGKGLEWVSYMSSDRSAIYYSDSVKDRFTISRDNAKNSLYLQMHSLRAEDTAVYYCARRYCSSTSCYRGLGYYYGMDVWGQGTTVTVSS
VL: SYELTQPPSVSVAPGQTARITCGGSNIGNKDVHWYQQKPGQAPVLVVYDDSDRPSGIPERFAGSNSGNTATLTISRVEAGDEADYYCQVWHSAGDHVVFGGGTKLTVL
In the case of B15, in the experiment with RSV F on RSV-A2 virus, the “Neutralization IC50 (RSV subtype A)” value was above 25 µg/mL. Moreover, in experiment [1], the binding result is “no binding”. The molecule further showed a Kd in experiment [2] of 439 pM.

Values taken from patent publication US20260258115A1 (MAPP BIOPHARMACEUTICAL, published 2026).
